According to patent US9433687B2, “Anti-Notch3 antibodies and antibody-drug conjugates” (Pfizer Inc., priority 2012, dated 2016):

B1: hu28 VH1.0/VL1.0: humanized r28 variant VH1.0/VL1.0, anti-Notch3 antibody (VH SEQ ID NO: 13, VL SEQ ID NO: 25) (antibody, V domains shown)
VH: EVQLVESGGGLVQPGGSLRLSCAASGFTFRDYGMTWVRQAPGKGLEWVAYISSGSNYIYYAEAVKGRFTISRDNAKNSLYLQMNSLRAEDTAVYYCARRGPFVLDAWGQGTLVTVSS
VL: DIQMTQSPSSLSASVGDRVTITCKASQSINRYLHWYQQKPGKAPKLLIYNANGLQTGVPSRFSGSGSGTDFTLTISSLQPEDFATYYCLQHNTWPDTFGGGTKVEIK
B2: ch75: rat-human chimeric anti-Notch3 antibody 75, rat variable regions fused with human IgG1 and human kappa (antibody, V domains shown)
VH: QVKLLQSGAALVKPGASVKMSCKASGYAFTDYWVTWVKQSHGKSLEWIGEISPNSGGTNFNEKFKGKATLTVDKSTSTAYMELSRLTSEDSAIYYCTRGEIRYNWFAYWGQGTLVTVSS
VL: NIVMTQSPKSMSISVGDRVTMNCKASQNVGNNIAWYQQKPGQSPKLLIYYASNRYTGVPDRFTGGGYGTDFTLTINSMQAEDAAFYYCQRLYNSPFTFGSGTKLEIK

Key:
[1] = target: T1, cell surface Notch3 on OVCAR3 cells (Homo sapiens, UniProt Q9UM47); test: Cell-based ELISA, OVCAR3 cells; details: Table 29; LB = lacked binding
T1 construct: Notch3 endogenously expressing cells MDA-MB-468, HCC2429 and OVCAR3; endogenous in cells; host or cells: OVCAR3
T1 sequence (Q9UM47 40-2321): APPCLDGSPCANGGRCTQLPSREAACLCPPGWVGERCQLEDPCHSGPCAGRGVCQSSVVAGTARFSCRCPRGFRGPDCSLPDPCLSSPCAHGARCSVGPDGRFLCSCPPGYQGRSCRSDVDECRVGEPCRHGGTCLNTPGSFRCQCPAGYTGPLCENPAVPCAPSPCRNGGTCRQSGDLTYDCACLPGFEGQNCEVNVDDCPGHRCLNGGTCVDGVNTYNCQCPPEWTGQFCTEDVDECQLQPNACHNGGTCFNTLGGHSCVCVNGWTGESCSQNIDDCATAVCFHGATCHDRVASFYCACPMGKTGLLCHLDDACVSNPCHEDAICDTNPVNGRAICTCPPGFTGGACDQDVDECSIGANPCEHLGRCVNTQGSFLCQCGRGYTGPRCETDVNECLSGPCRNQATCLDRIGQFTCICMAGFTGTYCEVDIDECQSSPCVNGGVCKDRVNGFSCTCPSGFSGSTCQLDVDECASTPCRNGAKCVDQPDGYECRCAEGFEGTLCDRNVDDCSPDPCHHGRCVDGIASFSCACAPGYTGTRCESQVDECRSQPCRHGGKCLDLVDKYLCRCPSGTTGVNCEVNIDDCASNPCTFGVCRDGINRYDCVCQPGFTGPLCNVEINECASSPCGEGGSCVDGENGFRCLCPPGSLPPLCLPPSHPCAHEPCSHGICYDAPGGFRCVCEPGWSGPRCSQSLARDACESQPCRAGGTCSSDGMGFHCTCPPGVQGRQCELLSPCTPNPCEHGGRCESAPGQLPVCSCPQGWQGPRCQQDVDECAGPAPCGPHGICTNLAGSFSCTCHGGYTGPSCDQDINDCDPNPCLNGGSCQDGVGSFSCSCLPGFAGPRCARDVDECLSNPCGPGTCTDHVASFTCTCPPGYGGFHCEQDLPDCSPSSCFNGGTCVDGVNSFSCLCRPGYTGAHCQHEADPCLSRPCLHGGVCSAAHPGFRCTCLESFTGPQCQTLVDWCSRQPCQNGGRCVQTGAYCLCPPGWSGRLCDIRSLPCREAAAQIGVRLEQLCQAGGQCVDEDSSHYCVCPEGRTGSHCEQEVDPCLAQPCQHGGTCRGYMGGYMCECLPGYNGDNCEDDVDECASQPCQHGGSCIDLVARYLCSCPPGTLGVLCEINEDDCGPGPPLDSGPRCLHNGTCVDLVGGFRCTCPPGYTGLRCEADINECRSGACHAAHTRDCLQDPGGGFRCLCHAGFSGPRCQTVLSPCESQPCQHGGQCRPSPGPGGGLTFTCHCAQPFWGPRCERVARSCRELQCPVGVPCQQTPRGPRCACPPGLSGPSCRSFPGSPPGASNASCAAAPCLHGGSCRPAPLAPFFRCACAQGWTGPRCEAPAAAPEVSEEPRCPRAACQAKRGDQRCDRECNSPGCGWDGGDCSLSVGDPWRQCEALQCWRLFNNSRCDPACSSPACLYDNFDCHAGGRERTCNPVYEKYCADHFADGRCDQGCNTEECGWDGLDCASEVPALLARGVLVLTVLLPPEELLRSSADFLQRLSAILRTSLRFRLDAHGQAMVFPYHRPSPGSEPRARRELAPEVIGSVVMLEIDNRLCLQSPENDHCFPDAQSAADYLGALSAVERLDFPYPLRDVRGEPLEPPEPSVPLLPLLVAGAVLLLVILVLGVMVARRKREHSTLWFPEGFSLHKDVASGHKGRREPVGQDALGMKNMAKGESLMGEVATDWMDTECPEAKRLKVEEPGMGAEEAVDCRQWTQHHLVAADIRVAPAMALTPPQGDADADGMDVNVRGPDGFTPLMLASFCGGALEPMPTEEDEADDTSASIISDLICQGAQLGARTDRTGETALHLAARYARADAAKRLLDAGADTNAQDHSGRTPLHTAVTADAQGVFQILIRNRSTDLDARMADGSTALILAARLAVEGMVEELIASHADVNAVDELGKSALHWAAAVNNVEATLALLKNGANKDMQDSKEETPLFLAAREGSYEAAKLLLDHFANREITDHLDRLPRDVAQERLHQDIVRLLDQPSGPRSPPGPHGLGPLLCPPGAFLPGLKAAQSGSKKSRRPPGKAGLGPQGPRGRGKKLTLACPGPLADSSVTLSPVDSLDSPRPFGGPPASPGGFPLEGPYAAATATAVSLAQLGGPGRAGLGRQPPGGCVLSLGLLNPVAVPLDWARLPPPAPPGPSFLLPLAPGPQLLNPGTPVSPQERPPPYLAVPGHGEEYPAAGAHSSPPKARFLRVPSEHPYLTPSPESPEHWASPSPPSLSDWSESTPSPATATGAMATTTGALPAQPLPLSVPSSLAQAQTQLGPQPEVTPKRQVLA

[2] = test system: HCC2429 or MDA-MB-468 cells; test: Co-localization with LAMP1, indirect immunofluorescence; assay type: cell-based, human; details: 10 μg/ml; after incubation at 37° C. for 90 minutes
Experimental: HCC2429 or MDA-MB-468 cells were cultured in a Lab Tec II 4 chambered coverglass with cover #1.5 borosilicate sterile slides (Thermo Fisher Scientific Inc.). For binding and internalization assays, cells were washed twice with HBSS++ and unconjugated anti-Notch3 antibodies, hu75 and hu28, were added to the cells at a concentration 10 μg/ml in 2% bovine serum albumin (BSA)/HBSS++ for 25 minutes on ice. To visual membrane binding at time 0 minutes, control cells were washed with ice cold HBSS++ and then fixed in 4% paraformaldehyde in PBS for 10 minutes. For antibody internalization, cells were washed twice with ice cold HBSS++ and then pre-warmed complete growth media was added to the cells and placed inside a humidified 37° C., 5% CO2 incubator. Cells were removed from the incubator, washed and fixed as before at multiple time points from 5 minutes to 18 hours. Cells were then washed 3 times with PBS, and permeabilized for 10 minutes with 0.3% Triton X-100 in PBS. Cells were washed 3 times with PBS for 5 minutes each time and then blocked for 1 hour in 3% BSA/PBS. Anti-LAMP-1 mouse monoclonal antibody (H4A3, Abcam) was added at 1:100 in 2% BSA/PBS for overnight incubation at 4° C. Cells were washed twice with PBS for 5 minutes each and then secondary goat anti-human Alexa Fluor 488 and goat anti-mouse Alexa Fluor 555 (Life technologies) were added for 45 minutes in the dark. […]

[3] = test system: Notch3 signaling in human Notch3 reporter cells co-cultured with DLL4-HEK293 cells; test: Notch3 reporter gene co-culture assay; assay type: cell-based; details: average of two or three independent experiments; read-out: IC50 (nM) inhibition of Notch3-dependent signaling
Experimental: The ability of anti-Notch3 chimeric antibodies, ch28-hulgG1 and ch75-hulgG1, and humanized antibodies, hu28 and hu75, to inhibit Notch3 signaling were tested in a Notch3-dependent reporter gene co-culture assay. Anti-Notch3 antibodies were pre-incubated with Notch3 reporter cells and then co-cultured with DLL4-HEK293 cells to activate Notch3 signaling or with parental HEK293 cells as a control.
To generate the Notch3 reporter cell line, a series of three sequential, stable transfections were performed in the U-2 OS human osteosarcoma cell line (ATCC, Manassas, Va.). […]
To generate the ligand-expressing cells, HEK293 cells (ATCC) were transfected with a vector for expression of human DLL4. […] Following transfection, HEK293 cells were selected in 0.5 mg/ml G418, and clonal lines were isolated, expanded and analyzed for DLL4 expression. […]
The luminescent readings from Firefly-luciferase were divided by the internal control Renilla-luciferase reading to normalize the signals (termed hereinafter “F/R ratio”). […]
Human Notch3 reporter cells were trypinized and harvested from culture plate in assay medium which consisted 50% complete McCoy's 5A media (McCoy's 5A with 10% FBS and penicillin, streptomycin, Invitrogen) and 50% of complete MEM media (MEM with 10% FBS and penicillin, streptomycin, Invitrogen) and counted. […]

| Molecule | EC50 [1] [nM] | co-localization with LAMP1 after internalization [2] | IC50 [3] [nM] |
| --- | --- | --- | --- |
| B1 | 0.46 | co-localized with anti-LAMP1 antibodies |  |
| B2 |  |  | 2.1 |
